According to the Human Domainome abundance scans (Beltran et al. 2025):
± gives the uncertainty stated by the source.

B1: Far upstream element-binding protein 1, residues 184 to 257; numbered along this chain, Q96AE4 (parent)
chain: GNAVQEIMIPASKAGLVIGKGGETIKQLQERAGVKMVMIQDGPQNTGADKPLRITGDPYKVQQAKEMVLELIRD

Variants of: B1
Experiment: abundance fitness (aPCA) (normalised: wild type 0, dead -1); higher = more abundant; growth selection in yeast, the domain comes from the species named
Settings: Homo sapiens

Row | Variant | abundance fitness
1 | GNAVQEIMIPASKAGLVIGKGGETIKQLQERAGDKMVMIQDGPQNTGADKPLRITGDPYKVQQAKEMVLELIRD [V34D] | -0.807 ± 0.067
2 | GNAVQEIMIPASKAGLVIGKGGETIKQLQERAGEKMVMIQDGPQNTGADKPLRITGDPYKVQQAKEMVLELIRD [V34E] | -0.753 ± 0.046
3 | GNAVQEIMIPASKAGLVIGKGGETIKQLQERAGFKMVMIQDGPQNTGADKPLRITGDPYKVQQAKEMVLELIRD [V34F] | -1.35 ± 0.15
4 | GNAVQEIMIPASKAGLVIGKGGETIKQLQERAGGKMVMIQDGPQNTGADKPLRITGDPYKVQQAKEMVLELIRD [V34G] | -0.767 ± 0.033
5 | GNAVQEIMIPASKAGLVIGKGGETIKQLQERAGHKMVMIQDGPQNTGADKPLRITGDPYKVQQAKEMVLELIRD [V34H] | -0.87 ± 0.096
6 | GNAVQEIMIPASKAGLVIGKGGETIKQLQERAGIKMVMIQDGPQNTGADKPLRITGDPYKVQQAKEMVLELIRD [V34I] | -0.432 ± 0.061
7 | GNAVQEIMIPASKAGLVIGKGGETIKQLQERAGKKMVMIQDGPQNTGADKPLRITGDPYKVQQAKEMVLELIRD [V34K] | -0.946 ± 0.074
8 | GNAVQEIMIPASKAGLVIGKGGETIKQLQERAGLKMVMIQDGPQNTGADKPLRITGDPYKVQQAKEMVLELIRD [V34L] | -0.567 ± 0.036
9 | GNAVQEIMIPASKAGLVIGKGGETIKQLQERAGMKMVMIQDGPQNTGADKPLRITGDPYKVQQAKEMVLELIRD [V34M] | -0.808 ± 0.059
10 | GNAVQEIMIPASKAGLVIGKGGETIKQLQERAGNKMVMIQDGPQNTGADKPLRITGDPYKVQQAKEMVLELIRD [V34N] | -0.68 ± 0.087
11 | GNAVQEIMIPASKAGLVIGKGGETIKQLQERAGPKMVMIQDGPQNTGADKPLRITGDPYKVQQAKEMVLELIRD [V34P] | -0.918 ± 0.065
12 | GNAVQEIMIPASKAGLVIGKGGETIKQLQERAGQKMVMIQDGPQNTGADKPLRITGDPYKVQQAKEMVLELIRD [V34Q] | -0.833 ± 0.063
13 | GNAVQEIMIPASKAGLVIGKGGETIKQLQERAGRKMVMIQDGPQNTGADKPLRITGDPYKVQQAKEMVLELIRD [V34R] | -0.974 ± 0.04
14 | GNAVQEIMIPASKAGLVIGKGGETIKQLQERAGSKMVMIQDGPQNTGADKPLRITGDPYKVQQAKEMVLELIRD [V34S] | -0.639 ± 0.041
15 | GNAVQEIMIPASKAGLVIGKGGETIKQLQERAGTKMVMIQDGPQNTGADKPLRITGDPYKVQQAKEMVLELIRD [V34T] | -0.232 ± 0.04
16 | GNAVQEIMIPASKAGLVIGKGGETIKQLQERAGWKMVMIQDGPQNTGADKPLRITGDPYKVQQAKEMVLELIRD [V34W] | -1.35 ± 0.086
17 | GNAVQEIMIPASKAGLVIGKGGETIKQLQERAGYKMVMIQDGPQNTGADKPLRITGDPYKVQQAKEMVLELIRD [V34Y] | -1.11 ± 0.12
18 | GNAVQEIMIPASKAGLVIGKGGETIKQLQERAGVCMVMIQDGPQNTGADKPLRITGDPYKVQQAKEMVLELIRD [K35C] | -0.11 ± 0.043
19 | GNAVQEIMIPASKAGLVIGKGGETIKQLQERAGVDMVMIQDGPQNTGADKPLRITGDPYKVQQAKEMVLELIRD [K35D] | -0.07 ± 0.046

Row | Variant | abundance fitness
20 | GNAVQEIMIPASKAGLVIGKGGETIKQLQERAGVEMVMIQDGPQNTGADKPLRITGDPYKVQQAKEMVLELIRD [K35E] | 0.003 ± 0.035
21 | GNAVQEIMIPASKAGLVIGKGGETIKQLQERAGVFMVMIQDGPQNTGADKPLRITGDPYKVQQAKEMVLELIRD [K35F] | -0.261 ± 0.053
22 | GNAVQEIMIPASKAGLVIGKGGETIKQLQERAGVGMVMIQDGPQNTGADKPLRITGDPYKVQQAKEMVLELIRD [K35G] | -0.071 ± 0.027
23 | GNAVQEIMIPASKAGLVIGKGGETIKQLQERAGVHMVMIQDGPQNTGADKPLRITGDPYKVQQAKEMVLELIRD [K35H] | 0.003 ± 0.058
24 | GNAVQEIMIPASKAGLVIGKGGETIKQLQERAGVIMVMIQDGPQNTGADKPLRITGDPYKVQQAKEMVLELIRD [K35I] | -0.158 ± 0.055
25 | GNAVQEIMIPASKAGLVIGKGGETIKQLQERAGVLMVMIQDGPQNTGADKPLRITGDPYKVQQAKEMVLELIRD [K35L] | -0.118 ± 0.03
26 | GNAVQEIMIPASKAGLVIGKGGETIKQLQERAGVMMVMIQDGPQNTGADKPLRITGDPYKVQQAKEMVLELIRD [K35M] | -0.154 ± 0.039
27 | GNAVQEIMIPASKAGLVIGKGGETIKQLQERAGVNMVMIQDGPQNTGADKPLRITGDPYKVQQAKEMVLELIRD [K35N] | 0.023 ± 0.052
28 | GNAVQEIMIPASKAGLVIGKGGETIKQLQERAGVPMVMIQDGPQNTGADKPLRITGDPYKVQQAKEMVLELIRD [K35P] | -0.472 ± 0.042
29 | GNAVQEIMIPASKAGLVIGKGGETIKQLQERAGVQMVMIQDGPQNTGADKPLRITGDPYKVQQAKEMVLELIRD [K35Q] | 0.015 ± 0.039
30 | GNAVQEIMIPASKAGLVIGKGGETIKQLQERAGVRMVMIQDGPQNTGADKPLRITGDPYKVQQAKEMVLELIRD [K35R] | -0.007 ± 0.027
31 | GNAVQEIMIPASKAGLVIGKGGETIKQLQERAGVSMVMIQDGPQNTGADKPLRITGDPYKVQQAKEMVLELIRD [K35S] | -0.116 ± 0.032
32 | GNAVQEIMIPASKAGLVIGKGGETIKQLQERAGVTMVMIQDGPQNTGADKPLRITGDPYKVQQAKEMVLELIRD [K35T] | -0.093 ± 0.038
33 | GNAVQEIMIPASKAGLVIGKGGETIKQLQERAGVVMVMIQDGPQNTGADKPLRITGDPYKVQQAKEMVLELIRD [K35V] | -0.124 ± 0.03
34 | GNAVQEIMIPASKAGLVIGKGGETIKQLQERAGVWMVMIQDGPQNTGADKPLRITGDPYKVQQAKEMVLELIRD [K35W] | -0.308 ± 0.036
35 | GNAVQEIMIPASKAGLVIGKGGETIKQLQERAGVYMVMIQDGPQNTGADKPLRITGDPYKVQQAKEMVLELIRD [K35Y] | -0.248 ± 0.055
36 | GNAVQEIMIPASKAGLVIGKGGETIKQLQERAGVKAVMIQDGPQNTGADKPLRITGDPYKVQQAKEMVLELIRD [M36A] | -0.194 ± 0.032
37 | GNAVQEIMIPASKAGLVIGKGGETIKQLQERAGVKCVMIQDGPQNTGADKPLRITGDPYKVQQAKEMVLELIRD [M36C] | -0.239 ± 0.042
